Laboratory results from article PMC9926122, “Kinetochore-microtubule attachment in human cells is regulated by the interaction of a conserved motif of Ska1 with EB1” (The Journal of Biological Chemistry, 2022).

B1: EB1-GST (natural protein, human, UniProt Q15691 1-268, looked up)
chain: MAVNVYSTSVTSDNLSRHDMLAWINESLQLNLTKIEQLCSGAAYCQFMDMLFPGSIALKKVKFQAKLEHEYIQNFKILQAGFKRMGVDKIIPVDKLVKGKFQDNFEFVQWFKKFFDANYDGKDYDPVAARQGQETAVAPSLVAPALNKPKKPLTSSSAAPQRPISTQRTAAAPKAGPGVVRKNPGVGNGDDEAAELMQQVNVLKLTVEDLEKERDFYFGKLRNIELICQENEGENDPVLQRIVDILYATDEGFVIPDEGGPQEEQEEY
notes: also called GST-tagged EB1; source: E. coli BL21 DE3, purified (Glutathione Sepharose)

How the values were obtained:
Conditions in all cases: both partners purified
EB1-GST = target: B1; assay: pull-down
6xHis-tagged WT Ska1 [1] = target: T1, 6xHis-tagged WT Ska1 (human, UniProt Q96BD8 1-255); assay: pull-down; competition: EB1-GST preincubated with the SXIP peptide aptamer for 2 h, GSH beads added, then incubated with Ska1 WT protein; rising doses of peptide
T1 construct: WT Ska1 from the plasmid pEC-S-CDF-His Ska1; Probably whole Ska1 (1-255); also called 6xHis Ska1 WT; 6xHis-Ska1; source: E. coli BL21 DE3, purified (Ni2+-NTA)
T1 sequence (Q96BD8 whole entry): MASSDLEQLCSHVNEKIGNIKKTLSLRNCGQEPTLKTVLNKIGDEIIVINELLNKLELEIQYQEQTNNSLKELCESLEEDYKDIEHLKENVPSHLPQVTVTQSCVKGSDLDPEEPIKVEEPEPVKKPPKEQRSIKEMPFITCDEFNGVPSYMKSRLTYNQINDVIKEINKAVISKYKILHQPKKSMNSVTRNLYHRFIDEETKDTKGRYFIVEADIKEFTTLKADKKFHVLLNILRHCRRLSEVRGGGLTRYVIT

6xHis-tagged WT Ska1 [2] = target: T1, 6xHis-tagged WT Ska1; assay: high-speed atomic force microscopy (HS-AFM); proteins (10-30 nM; 10 nM in the frames shown) in BRB80 buffer (80 mM Pipes, 1 mM EGTA, 1 mM MgCl2, pH 6.9) on mica, tapping mode, 150 ms per frame; EB1 alone, Ska1 alone and their mixture

ALNGQSRIPVLKRHTR [SXIP peptide aptamer]
percent reduction of EB1-Ska1 association at 1:5 M ratio of EB1:peptide (EB1-GST): ~70%

B1
binding result (6xHis-tagged WT Ska1 [1]): binds

B2: recombinant EB1 (HS-AFM and microtubule experiments) (natural protein, human, UniProt Q15691 1-268, looked up)
chain: MAVNVYSTSVTSDNLSRHDMLAWINESLQLNLTKIEQLCSGAAYCQFMDMLFPGSIALKKVKFQAKLEHEYIQNFKILQAGFKRMGVDKIIPVDKLVKGKFQDNFEFVQWFKKFFDANYDGKDYDPVAARQGQETAVAPSLVAPALNKPKKPLTSSSAAPQRPISTQRTAAAPKAGPGVVRKNPGVGNGDDEAAELMQQVNVLKLTVEDLEKERDFYFGKLRNIELICQENEGENDPVLQRIVDILYATDEGFVIPDEGGPQEEQEEY
notes: recombinant EB1 with N-terminal calponin homology domains (EB1-N), linker and C-terminal dimer region (EB1-C) seen by HS-AFM; The only EB1 expression construct that the methods describe is GST-tagged EB1 in pGEX 5x3; also called EB1 dimer; source: recombinant
binding result (6xHis-tagged WT Ska1 [2]): binds
